Columns and labels:
[1] = target: AE.A244gp120Δ11 (N-terminal 11 aa deleted) (HIV-1 (clade AE, A244)); assay: SPR; apparent affinity
B.MNgp120Δ11 = assay: SPR; apparent affinity

B1: DH677.3 MAb (antibody, V domains shown)
VH: QVQLVQSGAEVQKPGASVKVSCKASGYTFASYDINWVRQATGQGLEWMGWMNPKTGNTGYAQKFQGRVTLTRNTSISTAYMELTSLRSEDTAVYYCATYRIIAAVGYRYFQYWGQGTLVTVSS
VL: DIQLTQSPSSLSASVGDSVTITCRASQGFGNYLAWYQQRPGKVPEVLIYAATTLQSGVPSRFSGSGSGTDFTLTISSLQPEDVATYYCQKYNSAPFTFGQGTRLEIK
- Kd [1]: 0.6 nM
- Kd (B.MNgp120Δ11): 7.02 nM
